Laboratory results published in article PMC6774396 (Frontiers in Immunology, 2019).

What was measured:
[1] = system: THP-1 cells over TNF-α-activated HUVEC; experiment: L-selectin-GFP/RFP clustering in mid-TEM under flow, FLIM/FRET; type: cell-based, human; settings: 15 min perfusion at 1.5 dyn/cm^2, fixed in mid-TEM; Top = non-transmigrated uropods, Base = transmigrated pseudopods; at least 45 cells, 3 experiments; no TAPI-0
Experimental: (A) Line scanning confocal microscopic image of THP-1 cells, stably expressing GFP, captured in mid-TEM—following 15 min of perfusion over TNF-α-activated HUVEC monolayers. […] “Top” and “Base,” respectively, represent the apical and basolateral aspect of the endothelium (x63 objective lens, Leica SP5). Scale bar = 24 μm. (B,C) THP-1 cells expressing WT, SSAA, or SSDD L-selectin-GFP/RFP were perfused over TNF-α-activated HUVEC and fixed after 15 min of perfusion. […] Lifetime images taken of at least 45 cells and analyzed over 3 independent experiments was quantified and expressed as FRET efficiency. Images representative of three independent experiments, where at least 45 cells of each group was analyzed at two optical sections, Top and Base, as indicated in the cartoon of a yellow monocyte captured in mid-TEM crossing a red endothelium. Individual GFP channel and lifetime images are provided for each cell line. The lifetime of fluorescence is expressed in a pseudocolour scale from red (low lifetime with a very high probability of interaction) to blue (high lifetime with a very low probability of interaction). Statistics: unpaired student t-test ***p ≤ 0.001.
Cells expressing WT L-selectin-GFP/RFP were treated for 30 min with 10 μM TAPI-0 and subsequently perfused over TNF-activated HUVEC monolayers for 15 min prior to fixation and analysis for FRET by FLIM (see Materials and Methods for more detail). […] (B) Images representative of three independent experiments, where at least 45 cells of each group were analyzed at two optical sections–non-transmigrated uropods (Top) and transmigrated pseudopods (Base). GFP fluorescence channel and lifetime images are provided for each cell line. The lifetime of fluorescence is expressed in a pseudocolour scale from red (low lifetime with a very high probability of interaction) to blue (high lifetime with a very low probability of interaction). […]
FLIM measurement of FRET was performed with a multiphoton microscope system as described previously ([8], [23]). […] Fluorescence lifetime imaging capability was provided by time-correlated, single-photon counting electronics (SPC 700; Becker & Hickl). […] Data were analyzed as previously described ([65]). The FRET efficiency is related to the molecular separation of donor and acceptor and the fluorescence lifetime of the interacting fraction by: […]
where ηFRET is the FRET efficiency, R0 is the Förster radius, r is the molecular separation, τFRET is the lifetime of the interacting fraction and τd is the lifetime of the donor in the absence of an acceptor. The donor- only control is used as the reference against which all of other lifetimes are calculated in each experiment. τFRET and τd can also be taken to be the lifetime of the interacting fraction and non-interacting fraction, respectively. […]

[2] = system: THP-1 cells on immobilized biglycan; settings: isolated THP-1 cells, L-selectin-GFP/RFP; cited from earlier work
Description: This figure pieces together data from our recently published work ([8], [23]) with our data from this study. (A,B) In cells expressing WT L-selectin, clustering is only witnessed within pseudopods of transmigrating cells. […] Moesin-driven clustering is a pre-requisite for L-selectin shedding, and so the balance of L-select ...

Row | Molecule | subcellular distribution of L-selectin clustering during TEM (FLIM/FRET) [1] | clustering on immobilized biglycan [2]
1 | WT: wild-type human L-selectin, C-terminally tagged with GFP or RFP, expressed in THP-1 cells (protein, left off: eGFP (donor copy) or mCherry (acceptor copy, called RFP), C-terminal, kept) WTYHYSEKPMNWQRARRFCRDNYTDLVAIQNKAEIEYLEKTLPFSRSYYWIGIRKIGGIWTWVGTNKSLTEEAENWGDGEPNNKKNKEDCVEIYIKRNKDAGKWNDDACHKLKAALCYTASCQPWSCSGHGECVEIINNYTCNCDVGYYGPQCQFVIQCEPLEAPELGTMDCTHPLGNFSFSSQCAFSCSEGTNLTGIEETTCGPFGNWSSPEPTCQVIQCEPLSAPDLGIMNCSHPLASFSFTSACTFICSEGTELIGKKKTICESSGIWSNPSPICQKLDKSFSMIKEGDYNPLFIPVAVMVTAFSGLAFIIWLARRLKKGKKSKRSMNDPY | clustered exclusively within transmigrated pseudopods | can cluster when seeded onto immobilized biglycan
2 | SSAA: L-selectin with Ser^364 and Ser^367 both mutated to alanines (protein, left off: eGFP (donor copy) or mCherry (acceptor copy, called RFP), C-terminal, kept) WTYHYSEKPMNWQRARRFCRDNYTDLVAIQNKAEIEYLEKTLPFSRSYYWIGIRKIGGIWTWVGTNKSLTEEAENWGDGEPNNKKNKEDCVEIYIKRNKDAGKWNDDACHKLKAALCYTASCQPWSCSGHGECVEIINNYTCNCDVGYYGPQCQFVIQCEPLEAPELGTMDCTHPLGNFSFSSQCAFSCSEGTNLTGIEETTCGPFGNWSSPEPTCQVIQCEPLSAPDLGIMNCSHPLASFSFTSACTFICSEGTELIGKKKTICESSGIWSNPSPICQKLDKSFSMIKEGDYNPLFIPVAVMVTAFSGLAFIIWLARRLKKGKKAKRAMNDPY | phenocopied the subcellular distribution of WT L-selectin | –
